Here are results for one substance from patent US20230346919A1.

For this experiment, the target named is SARS-CoV-2 spike SΔ21 displayed on VSV-eGFP-SARS-CoV-2-SΔ21 particles (SARS-CoV-2 isolate Wuhan-Hu-1) (UniProt P0DTC2). The experiment can be described thus: cell-based or functional assay.

Take “human ACE2-Fc (hACE2 residues 1-615, HRV-3C site, human IgG1 Fc) (from UniProt Q9BYF1 18-615) (Fc fusion)”: the EC50, inhibition of VSV-SARS-CoV-2-SΔ21 infection (GRNT, Vero E6 cells) amounted to 29 mg/L.
